Measurements reported in publication PMC3585155, “CELF Family RNA–Binding Protein UNC-75 Regulates Two Sets of Mutually Exclusive Exons of the unc-32 Gene in Neuron-Specific Manners in Caenorhabditis elegans”.

Tests used:
Assay in all cases: EMSA; EMSA as described previously (ref 55); buffer, salt, pH and temperature not given
Settings in all cases: protein: recombinant; tags: FLAG; label: 32P
UNC-75 = UNC-75 (Caenorhabditis elegans, UniProt G5EE68 1-514)
UNC-75(L431F) = UNC-75(L431F) (Caenorhabditis elegans, UniProt G5EE68 1-514, L431F)
UNC-75(1-114) RRM1 = UNC-75(1-114) RRM1 (Caenorhabditis elegans, UniProt G5EE68 1-114)
UNC-75(417-514) RRM3 = UNC-75(417-514) RRM3 (Caenorhabditis elegans, UniProt G5EE68 417-514)
UNC-75(121-213) RRM2 = UNC-75(121-213) RRM2 (Caenorhabditis elegans, UniProt G5EE68 121-213)
FOX-1 = molecular target: T1, FOX-1 (Caenorhabditis elegans, UniProt Q10572 1-429)
T1 sequence: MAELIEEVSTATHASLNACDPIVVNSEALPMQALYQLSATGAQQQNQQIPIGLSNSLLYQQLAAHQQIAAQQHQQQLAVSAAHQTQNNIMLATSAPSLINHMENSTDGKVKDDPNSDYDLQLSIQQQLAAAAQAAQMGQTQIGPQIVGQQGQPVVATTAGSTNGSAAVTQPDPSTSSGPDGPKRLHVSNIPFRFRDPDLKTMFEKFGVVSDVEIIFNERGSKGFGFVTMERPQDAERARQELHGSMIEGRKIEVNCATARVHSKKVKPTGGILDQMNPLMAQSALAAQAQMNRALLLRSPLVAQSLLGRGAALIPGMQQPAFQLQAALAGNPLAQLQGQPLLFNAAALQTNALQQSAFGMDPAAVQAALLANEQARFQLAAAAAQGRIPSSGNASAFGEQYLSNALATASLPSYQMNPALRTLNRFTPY

ASD-1 = molecular target: T2, ASD-1 (Caenorhabditis elegans, UniProt G5EEW7 1-404)
T2 sequence: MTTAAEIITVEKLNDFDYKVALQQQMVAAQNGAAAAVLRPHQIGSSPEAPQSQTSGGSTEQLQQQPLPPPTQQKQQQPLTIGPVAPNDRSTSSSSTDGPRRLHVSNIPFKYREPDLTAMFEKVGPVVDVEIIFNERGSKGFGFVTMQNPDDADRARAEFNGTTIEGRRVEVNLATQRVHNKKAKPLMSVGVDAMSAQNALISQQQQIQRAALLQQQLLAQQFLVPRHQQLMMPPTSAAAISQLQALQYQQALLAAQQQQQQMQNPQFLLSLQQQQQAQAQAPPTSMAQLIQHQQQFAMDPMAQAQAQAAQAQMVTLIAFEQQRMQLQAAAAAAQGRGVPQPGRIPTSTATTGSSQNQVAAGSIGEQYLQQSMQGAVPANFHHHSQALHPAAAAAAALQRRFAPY

Row | Binder | binding result (UNC-75) | binding result (UNC-75(417-514) RRM3) | further results
1 | Probe 2-1-1 (also printed 2-2-1) (ssRNA) RNA: GGGAGAUUAGCACGCACCCGCCUUCUACUGUCCCGUUACUUUUUGUUGUGUUGU | binds | binds | binding result (UNC-75(L431F)): no binding; binding result (UNC-75(1-114) RRM1): no binding; binding result (UNC-75(121-213) RRM2): no binding
2 | Probe 2-1-1d (ssRNA) RNA: GGGAGAUUAGCACGCACCCGCCUUCUACUGUAAAAUUAAUUUUUGUUGUGUUGU | binds | binds | 
3 | Probe 2-1-1b (ssRNA) RNA: GGGAGAUUAGCACGCAAAAAAAUUCUACUGUCCCGUUACUUUUUGUUGUGUUGU | binds | binds | 
4 | Probe 2-1-1c (ssRNA) RNA: GGGAGAUUAGCACGCACCCGCCUUAUAAUAUCCCGUUACUUUUUGUUGUGUUGU | binds | binds | 
5 | Probe 2-1-1e (ssRNA) RNA: GGGAGAUUAGCACGCACCCGCCUUCUACUGUCCCGUUACUUUUUAUUAUAUUAU | no binding | no binding | 
6 | Probe 2-1-1a (ssRNA) RNA: GGGAGAUUAAAAAAAACCCGCCUUCUACUGUCCCGUUACUUUUUGUUGUGUUGU | binds | binds | 
7 | GGGAGAGGUGAUGGGUAGUUUUUGCAUGAUUGU (ssRNA) [intron 7b WT probe] |  |  | binding result (FOX-1): binds; binding result (ASD-1): binds
